This note sets out measurements from patent US20120282619.

The target of series [1] is T1, GTPase regulator associated with FAK (GRAF), Q9UNA1.
T1 chain: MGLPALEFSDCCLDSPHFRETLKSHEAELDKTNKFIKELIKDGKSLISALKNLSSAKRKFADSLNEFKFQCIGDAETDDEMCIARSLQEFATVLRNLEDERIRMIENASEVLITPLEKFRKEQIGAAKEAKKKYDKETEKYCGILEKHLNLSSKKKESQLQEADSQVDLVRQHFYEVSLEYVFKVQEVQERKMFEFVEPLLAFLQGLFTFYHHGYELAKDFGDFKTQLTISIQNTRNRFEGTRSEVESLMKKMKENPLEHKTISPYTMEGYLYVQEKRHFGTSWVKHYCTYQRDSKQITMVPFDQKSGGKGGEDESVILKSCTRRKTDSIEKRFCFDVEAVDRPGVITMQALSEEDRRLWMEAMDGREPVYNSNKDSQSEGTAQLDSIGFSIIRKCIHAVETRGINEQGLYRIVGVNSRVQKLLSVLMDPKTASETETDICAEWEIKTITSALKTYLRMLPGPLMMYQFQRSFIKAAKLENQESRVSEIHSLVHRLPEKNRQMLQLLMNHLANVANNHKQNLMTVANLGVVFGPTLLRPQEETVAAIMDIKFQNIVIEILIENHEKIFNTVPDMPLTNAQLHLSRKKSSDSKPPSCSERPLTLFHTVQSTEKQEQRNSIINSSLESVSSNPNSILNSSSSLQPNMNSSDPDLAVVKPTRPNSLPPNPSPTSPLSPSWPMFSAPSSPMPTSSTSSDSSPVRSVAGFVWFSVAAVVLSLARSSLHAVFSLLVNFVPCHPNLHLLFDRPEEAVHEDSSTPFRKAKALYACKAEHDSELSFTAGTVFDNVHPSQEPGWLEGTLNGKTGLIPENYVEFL

Another series addresses T2, p190RhoGAP, Q9NRY4.
T2 chain: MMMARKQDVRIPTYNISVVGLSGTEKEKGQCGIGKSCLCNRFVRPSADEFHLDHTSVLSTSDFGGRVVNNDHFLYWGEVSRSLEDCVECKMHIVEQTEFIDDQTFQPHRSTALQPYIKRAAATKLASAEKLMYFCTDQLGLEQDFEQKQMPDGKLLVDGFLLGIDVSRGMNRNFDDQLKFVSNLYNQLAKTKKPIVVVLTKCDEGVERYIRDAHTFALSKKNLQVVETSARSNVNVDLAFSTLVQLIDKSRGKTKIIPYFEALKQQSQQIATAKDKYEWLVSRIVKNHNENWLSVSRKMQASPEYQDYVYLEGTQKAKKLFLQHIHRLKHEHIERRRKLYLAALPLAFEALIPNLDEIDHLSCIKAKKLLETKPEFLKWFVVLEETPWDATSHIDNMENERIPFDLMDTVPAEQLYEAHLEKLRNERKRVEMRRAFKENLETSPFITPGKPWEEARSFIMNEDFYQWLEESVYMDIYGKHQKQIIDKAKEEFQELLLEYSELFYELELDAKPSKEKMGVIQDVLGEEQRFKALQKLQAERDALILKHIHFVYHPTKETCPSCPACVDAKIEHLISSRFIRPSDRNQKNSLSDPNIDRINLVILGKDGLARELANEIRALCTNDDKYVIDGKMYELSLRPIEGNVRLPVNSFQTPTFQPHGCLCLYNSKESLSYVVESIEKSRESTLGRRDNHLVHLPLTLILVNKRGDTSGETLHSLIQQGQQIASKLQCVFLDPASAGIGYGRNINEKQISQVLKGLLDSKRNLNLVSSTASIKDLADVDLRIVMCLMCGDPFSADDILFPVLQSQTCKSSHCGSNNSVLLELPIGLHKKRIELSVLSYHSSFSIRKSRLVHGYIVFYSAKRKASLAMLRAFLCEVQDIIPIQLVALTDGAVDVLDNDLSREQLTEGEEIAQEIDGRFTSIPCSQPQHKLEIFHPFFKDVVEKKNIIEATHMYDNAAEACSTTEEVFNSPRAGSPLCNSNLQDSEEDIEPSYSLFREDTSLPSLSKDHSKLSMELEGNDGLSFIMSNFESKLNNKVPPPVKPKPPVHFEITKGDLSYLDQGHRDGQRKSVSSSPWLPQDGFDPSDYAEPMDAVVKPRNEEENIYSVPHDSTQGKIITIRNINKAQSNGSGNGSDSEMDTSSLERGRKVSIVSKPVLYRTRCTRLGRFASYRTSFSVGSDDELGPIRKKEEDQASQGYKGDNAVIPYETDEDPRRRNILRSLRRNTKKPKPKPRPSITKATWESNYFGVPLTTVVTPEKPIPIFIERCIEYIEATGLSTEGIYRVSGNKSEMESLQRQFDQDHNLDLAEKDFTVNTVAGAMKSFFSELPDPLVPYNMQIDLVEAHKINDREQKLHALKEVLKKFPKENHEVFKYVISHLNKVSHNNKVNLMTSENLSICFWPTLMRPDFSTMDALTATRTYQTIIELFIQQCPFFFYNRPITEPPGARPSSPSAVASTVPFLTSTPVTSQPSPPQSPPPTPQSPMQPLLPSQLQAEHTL

B1: focal adhesion kinase (FAK) (protein)
chain: AAAYLDPNLNHTPNSSTKTHLGTGMERSPGAMERVLKVFHYFESNSEPTTWASIIRHGDATDVRGIIQKIVDSHKVKHVACYGFRLSHLRSEEVHWLHVDMGVSSVREKYELAHPPEEWKYELRIRYLPKGFLNQFTEDKPTLNFFYQQVKSDYMLEIADQVDQEIALKLGCLEIRRSYWEMRGNALEKKSNYEVLEKDVGLKRFFPKSLLDSVKAKTLRKLIQQTFRQFANLNREESILKFFEILSPVYRFDKECFKCALGSSWIISVELAIGPEEGISYLTDKGCNPTHLADFTQVQTIQYSNSEDKDRKGMLQLKIAGAPEPLTVTAPSLTIAENMADLIDGYCRLVNGTSQSFIIRPQKEGERALPSIPKLANSEKQGMRTHAVSVSETDDYAEIIDEEDTYTMPSTRDYEIQRERIELGRCIGEGQFGDVHQGIYMSPENPALAVAIKTCKNCTSDSVREKFLQEALTMRQFDHPHIVKLIGVITENPVWIIMELCTLGELRSFLQVRKYSLDLASLILYAYQLSTALAYLESKRFVHRDIAARNVLVSSNDCVKLGDFGLSRYMEDSTYYKASKGKLPIKWMAPESINFRRFTSASDVWMFGVCMWEILMHGVKPFQGVKNNDVIGRIENGERLPMPPNCPPTLYSLMTKCWAYDPSRRPRFTELKAQLSTILEEEKAQQEERMRMESRRQATVSWDSGGSDEAPPKPSRPGYPSPRSSEGFYPSPQHMVQTNHYQVSGYPGSHGITAMAGSIYPGQASLLDQTDSWNHRPQEIAMWQPNVEDSTVLDLRGIGQVLPTHLMEERLIRQQQEMEEDQRWLEKEERFLKPDVRLSRGSIDREDGSLQGPIGNQHIYQPVGKPDPAAPPKKPPRPGAPGHLGSLASLSSPADSYNEGVKLQPQEISPPPTANLDRSNDKVYENVTGLVKAVIEMSSKIQPAPPEEYVPMVKEVGLALRTLLATVDETIPLLPASTHREIEMAQKLLNSDLGELINKMKLAQQYVMTSLQQEYKKQMLTAAHALAVDAKNLLDVIDQARLKMLGQTRPH
As for B1, the RhoA activity entry is listed as “TM4SF5 expressed in SNU449 cells inhibited RhoA activity, leading to the elongation of cells” in series [1] and “TM4SF5 expressed in SNU449 cells inhibited RhoA activity, leading to the elongation of cells” with p190RhoGAP, Q9NRY4.
